Laboratory results published in patent publication US20140086913A1 (Gilead, published 2014).

T1: mouse DDR1 stably expressed on HEK293 cells (mouse, UniProt Q03146 20-911)
T1 construct: whole, on cells; also called murine DDR1
T1 sequence (looked up): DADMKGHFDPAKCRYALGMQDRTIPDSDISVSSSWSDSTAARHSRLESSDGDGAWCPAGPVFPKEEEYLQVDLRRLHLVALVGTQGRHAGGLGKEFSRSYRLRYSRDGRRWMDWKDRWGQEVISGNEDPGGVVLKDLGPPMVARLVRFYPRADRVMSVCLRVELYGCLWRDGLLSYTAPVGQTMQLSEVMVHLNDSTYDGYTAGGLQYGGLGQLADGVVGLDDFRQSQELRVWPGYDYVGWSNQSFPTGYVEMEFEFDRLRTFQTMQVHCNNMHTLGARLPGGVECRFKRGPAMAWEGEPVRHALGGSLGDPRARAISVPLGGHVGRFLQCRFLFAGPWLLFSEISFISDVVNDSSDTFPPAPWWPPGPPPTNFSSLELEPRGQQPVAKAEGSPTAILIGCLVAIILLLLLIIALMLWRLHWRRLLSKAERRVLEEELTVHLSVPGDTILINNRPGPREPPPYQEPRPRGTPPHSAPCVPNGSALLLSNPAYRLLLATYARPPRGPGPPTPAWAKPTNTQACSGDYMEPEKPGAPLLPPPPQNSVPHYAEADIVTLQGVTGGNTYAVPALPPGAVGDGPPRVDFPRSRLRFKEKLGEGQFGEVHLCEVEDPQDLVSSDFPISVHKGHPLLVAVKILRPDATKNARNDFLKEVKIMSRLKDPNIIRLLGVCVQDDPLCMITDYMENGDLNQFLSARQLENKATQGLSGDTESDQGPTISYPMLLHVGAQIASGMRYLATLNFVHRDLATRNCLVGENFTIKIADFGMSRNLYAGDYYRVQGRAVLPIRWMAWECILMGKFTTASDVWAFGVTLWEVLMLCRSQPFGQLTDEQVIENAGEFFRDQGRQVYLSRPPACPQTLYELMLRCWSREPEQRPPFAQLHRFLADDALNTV

T2: mouse ECD-DDR1-Fc (mouse; human, UniProt Q03146 22-414)
T2 construct: also called mouse DDR1-ECD; wild-type mouse DDR1-ECD; not shown: human IgG1 Fc of the vector pFuse-hIgG1-Fc1 (Invivogen)
T2 sequence: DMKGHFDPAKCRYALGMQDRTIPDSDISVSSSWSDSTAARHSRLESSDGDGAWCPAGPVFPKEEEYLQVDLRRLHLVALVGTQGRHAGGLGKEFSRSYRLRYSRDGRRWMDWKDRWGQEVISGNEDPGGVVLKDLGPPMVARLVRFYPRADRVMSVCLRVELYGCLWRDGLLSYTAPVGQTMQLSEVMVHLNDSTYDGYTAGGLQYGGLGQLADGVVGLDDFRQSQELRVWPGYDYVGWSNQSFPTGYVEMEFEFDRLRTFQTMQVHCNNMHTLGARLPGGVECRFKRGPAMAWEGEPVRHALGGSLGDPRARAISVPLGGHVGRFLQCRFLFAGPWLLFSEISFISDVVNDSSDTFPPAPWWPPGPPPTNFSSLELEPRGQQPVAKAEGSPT

B1: AB2039 (antibody, V domains shown)
VH: EVQLVESGGGLVQPGGSLKFSCAASGFTFSSYGMSWVRQTPDKRLELVAIINSHGFSTYYPDSVKGRFTISRDNAKNTLYLQMSSLKSEDTAIYYCARGGYGNYGMDYWGQGTSVTVSS
VL: DIVLTQSPASLAVSLGQRATISCRASESVDSYGNSFMHWYQQKVGQPPKLLIFRASNIESGIPARFSGSGSRTDFTLTINSVEADDVATYYCQQSNEAPYTFGGGTKLEIKR
notes: mouse hybridoma mAb; also called AB0039
B2: AB2010 (antibody, V domains shown)
VH: QVQLKQSGPGLVQPSQSLSITCTVSGFSFTGYGIHWVRQSPGKGLEWLGVIWSGGITDYNAAFISRLSISMDSSKGQVFFKMNSLQANDTAIYYCARRSTTVVADYAMDYWGQGTSVTVSS
VL: SIVMTQTPKFLLVSAGDRVTITCKASQSVSNDVAWYQQKPGQSPKLLIYYASNRYTGVPDRFTGSGYGTDFTFTINTVQAEDLAVYFCQQDYTSPLTFGAGTKLELKR
notes: mouse hybridoma mAb
B3: AB2092 (antibody, V domains shown)
VH: QIQLVQSGPELKKSGETVKISCKASGYTFTDYGMNWVKQAPGKGLKWMGWINTYTGKSTYADDFKGRFAFSLETSASTTYLQITNLKNEDMATYFCARWADYFGSSYLFASWGQGTLVTVSA
VL: DVLMTQTPLSLPVSLGDQASISCRSSQSIVHSDGNTYLEWYLQKPGQSPKLLIYKVSNRFSGVPDRFSGSGSGTDFTLKISRVEAEDLGIYYCFQGSHVPWTFGGGTKLEIKR
notes: mouse hybridoma mAb
B4: AB2041 (antibody, V domains shown)
VH: QVQLHQSGSELAKPGASVKMSCKASGYIFTTYWIHWLKQRPGQGLEWIGFINPDTDYTEYNQKFKDKATLTADKSSNTAYVQLSSLTSEDSAVYYCARGNYGYDGLVYWGLGTLVTVSA
VL: SIVMTQTPKFLLVSAGDRVTITCKASQSVSTDVAWYQQKPGQSPKLLIYYASNRYTGVPDRFTGSGYGTDFTFTISTVQAEDLAVYFCQQDYNSYTFGGGTKLEIKR
notes: mouse hybridoma mAb
B5: AB2004 (antibody, V domains shown)
VH: DVHLQESGPDLVKPSQSLSLTCTVTDYSITSGYGWHWIRQFPGNKLEWMGYIHYGGSTKYNSSLKSRISITRDTSKNQFFLQLKSVTTDDTGTYYCATSGNYGFAYWGQGTLVTVSA
VL: DIVLTQSPTSLAVSLGQRATMSCRASESVDDYGTSFMHWYQQKPGQPPKLLIYRASNLESGIPARFSGSGSRADFTLSINPVEPDDVATYYCQQSNEDPFTFGSGTKLEIKR
notes: mouse hybridoma mAb
B6: AB2078 (antibody, V domains shown)
VH: EIQLQQSGPELVNPGASVKVSCKASGYSFTDYNMYWVKQSHGKSLEWIGYIDPYNGGTSYNQKFKGKATLTVDKSSSTAFMHLNSLTSEDSAVYYCAREYYGSRLWYFDVWGAGTAVTVSS
VL: DIVMTQSPSSLAMSVGQKVTMSCKSSQSLLNRNNQKNYLAWYQQKPGQSPKLLVYFASTRESGVPDRFIGSGSGTDFTLTLSSVRAEDLAENFCQQHYSTPFTFGSGTRLEIKR
notes: mouse hybridoma mAb

Legend:
[1] = target: T1, mouse DDR1 stably expressed on HEK293 …; test: flow cytometry, column without head (taken as HEK293/mouse DDR1)
Protocol: Additional monoclonal antibodies were obtained from individual hybridomas in Example 1 and were characterized for their properties.
Cells were cultured in DMEM with 10% FBS and 0.8 mg/mL hygromycin. When cells reached 60-80% confluence, they were centrifuged at 1,200 rpm for 5 minutes, suspended in FACS buffer (1×PBS, 1% BSA), and aliquoted into a 96-well plate at 1×10⁶ cells per well. The anti-DDR1 monoclonal antibodies or appropriate isotype controls at 2 μg per 1×10⁶ cells were added and incubated at 4° C. for 1 hr. The cells were washed twice with FACS buffer then stained with the anti-IgG-PE secondary antibody at 10 μL per well at 4° C. for 1 hr. The cells were washed again and measured for the MFI values or signals using flow cytometry (LSR Fortessa instrument, BD Biosciences). Background MFI signals from vector-only cells (i.e. no DDR1 or DDR2 expression) was subtracted from those of the cells treated with antibodies. Higher MFI values or signals indicated increased binding or specificity of the anti-DDR1 antibodies to the DDR1 on the cell surface.

[2] = target: DDR1 endogenously expressed on human cancer cell lines (T47D, HCT-116, A431) (human) (UniProt Q08345); test: cell-based or functional assay
[3] = target: T3, DDR1ECD-Fc (R&D Systems, Catalog #2396-DR) (human, UniProt Q08345 21-416); test: ELISA
T3 construct: range 21-416; construct as described for the bought immunogen; also called human ECD-DDR1-Fc; Fc-ECD-DR1; not shown: human IgG1, Pro100-Lys330

mouse ECD-DDR1-Fc = target: T2, mouse ECD-DDR1-Fc; test: ELISA, coated antigen, apparent KD
How it was run: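 Plates coated overnight at 4° C with 2 μg/mL purified tagged DDR1 ECD protein, BSA-blocked; serially diluted murine anti-DDR1 mAbs bound 1 hr at room temperature, detected with anti-mouse IgG-HRP and TMB (OD 450). Apparent KD taken as C-parameter of 4-parameter logistic fit of OD versus antibody concentration.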

[4] = target: DDR1 with a ProLink Tag (PK) in engineered U20S cells (DiscoveRx), Q08345; test: cell-based or functional assay
[5] = target: DDR1 stably over-expressed in HCT-116 tumor cells, Q08345; test: cell-based or functional assay
[6] = target: human DDR1 (isoform B) stably expressed on HEK293 cells (human) (UniProt Q08345); test: flow cytometry, HEK293/human DDR1, normalized to empty-vector cells

T3 sequence (Q08345 other isoform, or with tags, fused parts or gaps limits assumed): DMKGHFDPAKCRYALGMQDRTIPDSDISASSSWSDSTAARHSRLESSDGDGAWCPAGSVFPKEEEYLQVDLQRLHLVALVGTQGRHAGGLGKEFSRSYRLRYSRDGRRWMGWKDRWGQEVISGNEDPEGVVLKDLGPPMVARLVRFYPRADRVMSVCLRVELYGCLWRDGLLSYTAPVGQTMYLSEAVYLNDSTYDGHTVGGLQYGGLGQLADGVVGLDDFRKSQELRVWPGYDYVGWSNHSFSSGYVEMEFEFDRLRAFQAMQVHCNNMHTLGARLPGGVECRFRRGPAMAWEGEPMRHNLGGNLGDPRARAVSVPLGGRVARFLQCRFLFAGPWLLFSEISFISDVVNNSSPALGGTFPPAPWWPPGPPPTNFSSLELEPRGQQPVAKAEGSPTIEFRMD

Row | Binder | MFI [1] | EC50, DDR1 phospho-specific ELISA (T47D) [2] | EC50, cluster formation assay (A431 cells) [2] | Maximal inhibition, DDR1 phospho-specific ELISA (T47D) [2] | NPI of cluster formation at 66 nM (A431 cells) [2] | Kd [3] | Kd (mouse ECD-DDR1-Fc) | Mean EC50, DDR1 Tyr513 phosphorylation assay (U20S) [4] | EC50, NFkB luciferase reporter (HCT-116, collagen II) [5] | EC50, collagen-mediated relocalization of DDR1 (HCT-116) [5] | EC90, NFkB luciferase reporter (HCT-116, collagen II) [5] | MFI [6]
1 | B1 | 10500 MFI | 0.43 nM | 0.93 nM | 100% | 103% | 0.346 nM | 2.37 nM | 1.1 nM | 1.63 nM | 0.45 nM | 4.61 nM | 8020 MFI
2 | B2 | 7140 MFI | 0.63 nM | 4.84 nM | 100% | 108% |  | 33.7 nM | 7.6 nM |  |  |  | 
3 | B3 | 22800 MFI |  |  |  |  | 0.287 nM | 1.19 nM | 2.45 nM | 1.13 nM |  | 4.73 nM | 6020 MFI
4 | B4 |  |  |  |  |  | 0.561 nM |  | 2.65 nM | 1.12 nM | 2.2 nM | 4.17 nM | 12500 MFI
5 | B5 | 9500 MFI | 0.43 nM | 2.28 nM | 100% | 110% | 0.154 nM |  | 1.85 nM | 3.7 nM | 1.4 nM | 6.95 nM | 14400 MFI
6 | B6 | 24200 MFI | 0.39 nM | 1.82 nM | 100% | 123% | 0.374 nM | 10.9 nM |  |  |  |  | 7490 MFI
